T1: LRP5prop3,4LBD V5His (propellers 3 and 4 and ligand binding domain of LRP5, amino acids 642 to 1376 of … (UniProt O75197 642-1376))
T1 construct: range 642-1376; Secreted from HEK293T cells co-transfected with RAP; also called LRP5VHis prop3,4; not shown: V5 (and His) tag from the pcDNA3.1/V5 expression vector
T1 sequence (looked up): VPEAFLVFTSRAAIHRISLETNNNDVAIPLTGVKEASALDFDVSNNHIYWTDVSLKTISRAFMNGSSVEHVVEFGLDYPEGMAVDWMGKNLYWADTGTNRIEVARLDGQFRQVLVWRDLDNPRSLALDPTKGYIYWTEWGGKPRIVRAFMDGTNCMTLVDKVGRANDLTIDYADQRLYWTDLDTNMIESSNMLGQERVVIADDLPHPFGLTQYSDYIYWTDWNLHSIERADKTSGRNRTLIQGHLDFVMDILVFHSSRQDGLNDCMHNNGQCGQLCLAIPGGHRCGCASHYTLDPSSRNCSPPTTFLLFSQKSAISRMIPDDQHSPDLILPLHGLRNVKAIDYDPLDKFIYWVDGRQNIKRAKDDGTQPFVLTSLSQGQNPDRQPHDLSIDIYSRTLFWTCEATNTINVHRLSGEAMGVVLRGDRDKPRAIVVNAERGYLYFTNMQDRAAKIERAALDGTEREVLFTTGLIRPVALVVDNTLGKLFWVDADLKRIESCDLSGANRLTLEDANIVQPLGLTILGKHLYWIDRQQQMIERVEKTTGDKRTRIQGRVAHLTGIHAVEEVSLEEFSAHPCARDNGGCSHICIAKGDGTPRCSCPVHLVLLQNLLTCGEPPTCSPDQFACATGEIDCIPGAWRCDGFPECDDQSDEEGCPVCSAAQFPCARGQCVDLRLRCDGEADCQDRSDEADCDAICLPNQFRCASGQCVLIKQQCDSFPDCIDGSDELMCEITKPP

B1: Dkk1mycHis (wild-type human Dkk1 with C-terminal c-myc and His6 tags, secreted by HEK293T cells; used purified or as conditioned media) (ligand)
chain: ATLNSVLNSNAIKNLPPPLGGAAGHPGSAVSAAPGILYPGGNKYQTIDNYQPYPCAEDEECGTDEYCASPTRGGDAGVQICLACRKRRKRCMRHAMCCPGNYCKNGICVSSDQNHFRGEIEETITESFGNDHSTLDGYSRRTTLSSKMYHTKGQEGSVCLRSSDCASGLCCARHFWSKICKPVLKEGQVCTKHRRKGSHGLEIFQRCYCGEGLSCRIQKDHHQASNSSRLHTCQRHSRGPFEQKLISEEDLNMHTGHHHHHH
modifications: N-linked glycosylation (mammalian pattern); 125I-labelled by the chloramine-T method only in the radioligand assay of Example 10
notes: Secreted protein; also called WT; wild-type Dkk1
B2: Recombinant human Dkk1 from R&D Systems (Cat. No. 1096-DK/CF), baculovirus/insect cell derived (ligand, UniProt O94907 32-266, looked up)
chain: TLNSVLNSNAIKNLPPPLGGAAGHPGSAVSAAPGILYPGGNKYQTIDNYQPYPCAEDEECGTDEYCASPTRGGDAGVQICLACRKRRKRCMRHAMCCPGNYCKNGICVSSDQNHFRGEIEETITESFGNDHSTLDGYSRRTTLSSKMYHTKGQEGSVCLRSSDCASGLCCARHFWSKICKPVLKEGQVCTKHRRKGSHGLEIFQRCYCGEGLSCRIQKDHHQASNSSRLHTCQRH
modifications: 125I-labelled in the radioligand assay of Example 10 only
notes: Bought protein; no myc tag; also called R&D Dkk1; R&D Systems Dkk1

Key:
[1] = biological target: LRP5 protein (form not named at the place) (UniProt O75197); test: cell-based or functional assay
[2] = biological target: T1, LRP5prop3,4LBD V5His (propellers 3 and …); test: TR-FRET (anti-V5-Eu / anti-myc-Cy5), apparent Kd, concentrations of Dkk1 and LRP5prop34LBD varied, 50 mM PIPES pH 6.5
Experimental: The time resolved fluorescence resonance energy transfer (TR-FRET) platform was chosen to develop an assay for Dkk1-LRP5prop34LBD interaction because the TR-FRET assay is highly sensitive, easy to set up and capable of detecting weak interactions. For this assay, two labeled molecules are added to the system. If an interaction occurs, the labels are brought into close proximity and energy transfer occurs to release energy at specific wavelengths that can be detected. For detection of interaction between Dkk1 and LRP5prop34LBD, the Dkk1 (tagged with myc) is effectively labeled using a Cy5 labeled monoclonal anti-myc antibody. […] Cy5 absorbs at 615 nm and emits energy at 665 nm which is detected. The measurement was conducted on a Wallac EnVision 2100 Multilabel Reader from PerkinElmer Life Science. […] The interaction between Dkk1 and LRP5prop3,4LBD is expressed as the ratio of fluorescence intensity at 665 nm over 615 nm, which represents the energy transfer from the europium to Cy5 dye. […]
Kdapp Determination. The observed Kdapp was determined by varying concentrations of Dkk1 and LRP5prop34LBD in the reaction mixture containing 50 mM PIPES (pH 6.5), 0.5 mM DTT, 0.01% Tween-20, 0.5 nM V5-mAb-Eu, and 15 nM ,myc-Ab-Cy5. […] Kd-value determined here is a Kdapp-value as the antibody concentration is limiting in the assay. […]

[3] = biological target: T1, LRP5prop3,4LBD V5His (propellers 3 and …); test: TR-FRET competition; untagged R&D Dkk1 titrated against myc-tagged Dkk1 binding to LRP5prop34LBD
Experimental: The time resolved fluorescence resonance energy transfer (TR-FRET) platform was chosen to develop an assay for Dkk1-LRP5prop34LBD interaction because the TR-FRET assay is highly sensitive, easy to set up and capable of detecting weak interactions. For this assay, two labeled molecules are added to the system. If an interaction occurs, the labels are brought into close proximity and energy transfer occurs to release energy at specific wavelengths that can be detected. For detection of interaction between Dkk1 and LRP5prop34LBD, the Dkk1 (tagged with myc) is effectively labeled using a Cy5 labeled monoclonal anti-myc antibody. The LRP5prop34LBD (tagged with V5) is effectively labeled using a Europium labeled monoclonal anti-V5 antibody. Europium is excited at 340 nm and re-emits energy at 615 nm. Cy5 absorbs at 615 nm and emits energy at 665 nm which is detected. The measurement was conducted on a Wallac EnVision 2100 Multilabel Reader from PerkinElmer Life Science. […] The interaction between Dkk1 and LRP5prop3,4LBD is expressed as the ratio of fluorescence intensity at 665 nm over 615 nm, which represents the energy transfer from the europium to Cy5 dye. […]
Dkk1 without a myc tag was purchased from R&D Inc. and is a Dkk1 synthesized in a baculovirus/insect cell system. […] The data were analyzed with Grafit 5 (Erithacus Software).

Binder	activity in the TCF luciferase assay compared with baculovirus Dkk1 (FIG. 4) (% greater activity than R&D Systems Dkk1) [1]	Kd [2] [nM]	IC50 [3] [nM]
B1	25	11.8	–
B2	–	–	1.42

Source: patent US20080038775A1 (published 2008)
